Numbering of substitutions follows the chain as printed. Values belong to the binder of their own block, whether it stands above or below them.
Key:
[1] = biological target: human relaxin family peptide receptor 2 (RXFP2) (human) (UniProt Q8WXD0)
[2] = biological target: rat relaxin family peptide receptor 2 (RXFP2) (rat) (UniProt Q5ECL0)
[3] = biological target: rat relaxin family peptide receptor 2 (RXFP2) (rat) (UniProt Q5ECL0); remark: listed apart in the source

Sequence of human relaxin family peptide receptor 2 (RXFP2) (human) (Q8WXD0 whole entry): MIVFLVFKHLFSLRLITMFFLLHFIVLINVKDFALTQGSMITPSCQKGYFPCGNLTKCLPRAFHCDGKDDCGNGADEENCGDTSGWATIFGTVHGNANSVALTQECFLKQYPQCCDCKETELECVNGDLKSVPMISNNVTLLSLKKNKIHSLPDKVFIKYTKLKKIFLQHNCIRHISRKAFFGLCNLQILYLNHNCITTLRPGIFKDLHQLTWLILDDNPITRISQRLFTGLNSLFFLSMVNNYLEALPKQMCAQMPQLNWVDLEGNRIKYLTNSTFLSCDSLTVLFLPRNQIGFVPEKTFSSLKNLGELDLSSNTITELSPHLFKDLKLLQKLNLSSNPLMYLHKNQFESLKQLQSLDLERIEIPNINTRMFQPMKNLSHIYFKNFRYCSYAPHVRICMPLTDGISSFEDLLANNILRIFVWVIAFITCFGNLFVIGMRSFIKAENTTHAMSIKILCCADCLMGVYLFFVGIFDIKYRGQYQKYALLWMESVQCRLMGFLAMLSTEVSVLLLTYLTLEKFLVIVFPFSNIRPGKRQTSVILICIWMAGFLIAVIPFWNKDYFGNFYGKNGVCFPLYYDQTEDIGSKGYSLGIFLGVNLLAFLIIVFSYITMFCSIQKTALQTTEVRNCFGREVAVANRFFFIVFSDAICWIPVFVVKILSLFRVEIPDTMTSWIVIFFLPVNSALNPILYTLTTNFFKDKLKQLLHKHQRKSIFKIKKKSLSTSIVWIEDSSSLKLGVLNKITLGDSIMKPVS
Sequence of rat relaxin family peptide receptor 2 (RXFP2) (rat) (Q5ECL0 entry or part of it): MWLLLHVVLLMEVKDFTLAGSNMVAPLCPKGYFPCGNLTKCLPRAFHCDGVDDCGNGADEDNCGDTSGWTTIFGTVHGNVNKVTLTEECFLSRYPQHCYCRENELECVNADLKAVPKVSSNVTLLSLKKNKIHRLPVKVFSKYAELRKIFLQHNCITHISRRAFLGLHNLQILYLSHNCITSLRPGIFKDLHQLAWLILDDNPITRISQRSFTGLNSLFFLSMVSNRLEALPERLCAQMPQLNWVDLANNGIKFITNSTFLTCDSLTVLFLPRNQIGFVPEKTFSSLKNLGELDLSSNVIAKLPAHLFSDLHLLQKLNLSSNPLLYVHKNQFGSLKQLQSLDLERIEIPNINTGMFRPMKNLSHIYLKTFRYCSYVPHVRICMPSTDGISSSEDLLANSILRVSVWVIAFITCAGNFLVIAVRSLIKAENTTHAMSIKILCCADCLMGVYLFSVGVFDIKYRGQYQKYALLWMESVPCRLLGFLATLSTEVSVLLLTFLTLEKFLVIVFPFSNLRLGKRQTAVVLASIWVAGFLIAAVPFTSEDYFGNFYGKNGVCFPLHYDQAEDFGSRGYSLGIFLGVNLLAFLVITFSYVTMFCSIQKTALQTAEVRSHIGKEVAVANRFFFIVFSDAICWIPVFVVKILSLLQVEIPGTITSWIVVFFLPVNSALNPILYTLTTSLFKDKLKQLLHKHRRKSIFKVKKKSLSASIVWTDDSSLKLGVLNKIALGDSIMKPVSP

B2: RXFP2 mAb 1F2 (antibody, V domains shown)
VH: QVQLKQSGPGLVQPSQSLSITCTVSGFSLTAYGVNWVRQSPGKGLEWLGVIWSGGNTDYNAPFISRLSITKDNSKSQVFFKMNSLEADDTAIYYCARAKGYYAMDYWGQGTSVTVSS
VL: DIQMTQSPASLSVSVGESVTITCRATENIYSNLVWYQQKQGQSPQLLVYAVTSLADGVPSRFSGSGSGTQYSLKINSLQSEDFGTYYCQHFWGTPYTFGGGTKLEIK
- IC50, INSL3 (EC80)-stimulated cAMP in HEK293 stably expressing human RXFP2 [1]: 405 nM
- % Max Response, INSL3 (EC80)-stimulated cAMP in HEK293 stably expressing rat RXFP2 [2]: 76.1%
- IC50, INSL3 (EC80)-stimulated cAMP in HEK293 stably expressing rat RXFP2 [2]: 19.1 nM
- IC50, INSL3-stimulated CYP11B1 mRNA in H295R stably expressing rat RXFP2 [2]: 0.32 nM
- IC50, INSL3-stimulated CYP11B2 mRNA in H295R stably expressing rat RXFP2 [2]: 0.1 nM
- IC50, INSL3-induced cortisol release (ELISA) from H295R stably expressing rat RXFP2 [3]: 0.21 nM

B4: RXFP2 mAb 2D4 (antibody, V domains shown)
VH: QVQLKESGPGLVAPSQSLSITCTVSGFSLTTYGISWVRQPPGKGLEWLGVIWTGGGTNYNSALKSRLSISKDNSKSQVFLKMNSLQTDDTARYYCARTEGYYVMDYWGQGTSVTVSS
VL: B2 VL with S18T, T26S, Q42K, V51A, S53N, S77N, T94P, Y96W
- IC50, INSL3 (EC80)-stimulated cAMP in HEK293 stably expressing human RXFP2 [1]: > 1000 nM
- % Max Response, INSL3 (EC80)-stimulated cAMP in HEK293 stably expressing rat RXFP2 [2]: 86.8%
- IC50, INSL3 (EC80)-stimulated cAMP in HEK293 stably expressing rat RXFP2 [2]: 21 nM
- IC50, INSL3-stimulated CYP11B1 mRNA in H295R stably expressing rat RXFP2 [2]: 0.14 nM
- IC50, INSL3-stimulated CYP11B2 mRNA in H295R stably expressing rat RXFP2 [2]: 0.11 nM
- IC50, INSL3-induced aldosterone release (ELISA) from H295R stably expressing rat RXFP2 [3]: 0.05 nM
- IC50, INSL3-induced cortisol release (ELISA) from H295R stably expressing rat RXFP2 [3]: 0.17 nM

B5: RXFP2 mAb 3H1 (antibody, V domains shown)
VH: QVQLKETGPGLVAPSQSLSITCTVSGFSLTNYGVNWVRQPPGKGLEWLVVIWSDGSTNYNSALKSRLSISKDNSKSQVFLKMNSLQTDDTAMYYCARQQGYYAMDYWGQGTSVIVSS
VL: B2 VL with S18T, T26S, V34A, Q42K, S53N, T85S, T94P
- % Max Response, INSL3 (EC80)-stimulated cAMP in HEK293 stably expressing rat RXFP2 [2]: 71.6%
- IC50, INSL3 (EC80)-stimulated cAMP in HEK293 stably expressing rat RXFP2 [2]: 15.8 nM
- IC50, INSL3-stimulated CYP11B1 mRNA in H295R stably expressing rat RXFP2 [2]: 0.33 nM
- IC50, INSL3-stimulated CYP11B2 mRNA in H295R stably expressing rat RXFP2 [2]: 0.16 nM

B6: RXFP2 mAb 3F1 (antibody, V domains shown)
VH: QVQLKESGPGLVAPSQSLSITCTVSGFSLTDYGVSWIRQPPGKGLEWLGVIWGGGSTDYNPALKSRLSISKDNSKSQVFLKMNSLQADDTAMYYCVKHEGYYAMDYWGQGTSVTVSS
VL: B2 VL with S18T, T26S, V34A, Q42K, Q45H, S53N, T85S
- IC50, INSL3 (EC80)-stimulated cAMP in HEK293 stably expressing human RXFP2 [1]: 589 nM
- % Max Response, INSL3 (EC80)-stimulated cAMP in HEK293 stably expressing rat RXFP2 [2]: 69.7%
- IC50, INSL3 (EC80)-stimulated cAMP in HEK293 stably expressing rat RXFP2 [2]: 19.9 nM
- IC50, INSL3-stimulated CYP11B1 mRNA in H295R stably expressing rat RXFP2 [2]: 0.27 nM
- IC50, INSL3-stimulated CYP11B2 mRNA in H295R stably expressing rat RXFP2 [2]: 0.23 nM

Second part, the binder after the results:

- % Max Response, INSL3 (EC80)-stimulated cAMP in HEK293 stably expressing human RXFP2 [1]: 84.5%
- IC50, INSL3 (EC80)-stimulated cAMP in HEK293 stably expressing human RXFP2 [1]: 15.6 nM
- % Max Response, INSL3 (EC80)-stimulated cAMP in HEK293 stably expressing rat RXFP2 [2]: 82.5%
- IC50, INSL3 (EC80)-stimulated cAMP in HEK293 stably expressing rat RXFP2 [2]: 14.1 nM
- IC50, INSL3-stimulated CYP11B1 mRNA in H295R stably expressing rat RXFP2 [2]: 0.33 nM
- IC50, INSL3-stimulated CYP11B2 mRNA in H295R stably expressing rat RXFP2 [2]: 0.1 nM
- IC50, INSL3-induced cortisol release (ELISA) from H295R stably expressing rat RXFP2 [3]: 0.26 nM
B1: RXFP2 mAb 4G6 (antibody, V domains shown)
VH: EVQLQQSGPELVKPGASVKLSCKASGYTFTSYVMHWVKQKPEQGLEWIGYKNPSNDGIKYNEKFKGKATLTSDKSSNIAYMELFSLTSEDSAVYYCARSDFGSVWAMDYWGQGTSVTVSS
VL: SIVMTQTPKFLLVSAGDRVTITCKASQSVNDDIVWYQQKPGQSPKLLIYYASNRYTGVPDRFTGSGYGTDFTFTISTVQAGDLAVYFCQQDYSSPFTFGSGTKLEIK

- % Max Response, INSL3 (EC80)-stimulated cAMP in HEK293 stably expressing rat RXFP2 [2]: 85.7%
- IC50, INSL3 (EC80)-stimulated cAMP in HEK293 stably expressing rat RXFP2 [2]: 18.9 nM
- IC50, INSL3-stimulated CYP11B1 mRNA in H295R stably expressing rat RXFP2 [2]: 0.26 nM
- IC50, INSL3-stimulated CYP11B2 mRNA in H295R stably expressing rat RXFP2 [2]: 0.13 nM
B3: RXFP2 mAb 4H2 (antibody, V domains shown)
VH: QVQLRQSGPSLVQPSQSLSITCTVSGFSLTNYGVHWVRQSPGKGLEWLGVIWRGGNTDHNAAFMSRLSITKDNSESQVFFKMNSLQVDDTAIYYCAKAEGYYALDYWGQGTSVTVYS
VL: B2 VL with S18T, T26S, V34A, Q42K, S53N, T85S, Y96W

- % Max Response, INSL3 (EC80)-stimulated cAMP in HEK293 stably expressing rat RXFP2 [2]: 89.2%
- IC50, INSL3 (EC80)-stimulated cAMP in HEK293 stably expressing rat RXFP2 [2]: 14.2 nM
- IC50, INSL3-stimulated CYP11B1 mRNA in H295R stably expressing rat RXFP2 [2]: 0.21 nM
- IC50, INSL3-stimulated CYP11B2 mRNA in H295R stably expressing rat RXFP2 [2]: 0.15 nM
B7: RXFP2 mAb 4H5 (antibody, V domains shown)
VH: QVQLKQSGPGLVQPSQSLSITCTVSGFSLTNYGVHWVRQSPGKGLEWLGVIWRDGNTDYNAAFMSRLSITKDNSKSQVFFEMNSLQVDDTAIYYCCRGDGYYAMGYWGQGTSVTVSS
VL: B2 VL with S18T, T26S, V34A, K39R, Q42R, V51A, S53N, T85N, T94S, Y96R

- IC50, INSL3 (EC80)-stimulated cAMP in HEK293 stably expressing human RXFP2 [1]: 116 nM
- % Max Response, INSL3 (EC80)-stimulated cAMP in HEK293 stably expressing rat RXFP2 [2]: 86.6%
- IC50, INSL3 (EC80)-stimulated cAMP in HEK293 stably expressing rat RXFP2 [2]: 21.4 nM
- IC50, INSL3-stimulated CYP11B1 mRNA in H295R stably expressing rat RXFP2 [2]: 0.23 nM
- IC50, INSL3-stimulated CYP11B2 mRNA in H295R stably expressing rat RXFP2 [2]: 0.17 nM
B8: RXFP2 mAb 4B8 (antibody, V domains shown)
VH: QVQLKQSGPGLVQPSQSLSITCTVSGFSLSRYGVHWVRQSPGKGLEWLGVIWSGGSTEYNAVFKSRLSISKDNSKSQVFFKMNSLQANDTAIYYCVRADGYYAMEYWGQGTSVTVSS
VL: B2 VL with S18T, T26S, V34A, Q42K, S53N, T85N

Source: publication PMC11162469, “Discovery of RXFP2 genetic association in resistant hypertensive men and RXFP2 antagonists for the treatment of resistant hypertension” (Scientific Reports, 2024)
